Reference: the supplement of paper PMC9170038

Tested on: K4 kissing-loop RNA reporter
Assay: apparent KD of K4 kissing-loop reporter; higher = weaker reporter binding
Details: Eterna round: R107; input ligand: arginine 13.2 mM
Method: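 RNA-MaP round R107: designed RNA switches with theophylline, tryptophan, arginine or FMN aptamers are transcribed on-chip within common flanks. They are titrated with a labelled K4 kissing-loop RNA reporter in RNA-MaP buffer (100 mM Tris pH 7.5, 80 mM KCl, 4 mM MgCl2), without ligand or with the indicated ligand. Median apparent KD per design.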
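Further: bound reporter read as fluorescence of individual clusters on recovered sequencing chips by microscopy, with normalized cluster intensities fitted with a binding model.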

| Sequence | apparent KD of K4 kissing-loop reporter [nM] |
| --- | --- |
| UGAUACCAGACUGAUACCAGCGAGUGAUGUUCGUUGAAAUCAGGGUCAAAGACCCUGUCUCGCCCUUGGCAGCAGUCUGGUAUCU [TheoBX 22 #SwitchBubble #StaticStem] | 704 |
| UGGAGUUGACGAAAAGUCAACUCCUGAGAUACCAGUGACGAAAGUCACCCUUGGCAGCUCACUGCCAGUGAUGUUGGAAGAUAAA [whbob_SS_Theo_A_w46] | 149 |
| CCUUCCUAAAACGAUACCAGUUUCUAUCCUCAAUCCAGUGAUGUUGAAUUGAGCUCACAGAACCCUUGGCAGCGUCGCUAUACGG [theeternabot_sameState_KL_Theo_B_39] | 202 |
| UGACUGGACUGAAGGAGCGCUGAACUCCUAGUGAUGUUAGGACAACGAGACAAAGUCUCGAAGCAGGUAGGUCGCAGUCUAGUCU | 129 |

Same assay, conditions: Eterna round: R107; input ligand: none

| Sequence | apparent KD of K4 kissing-loop reporter [nM] |
| --- | --- |
| AGUUUAUAGGAGGAUACCAGUACGGAUAAGGUACGUUAAUAGUAGAGUGAUGUUCUAAAGUACCCUUGGCAGCUUAGAUUGAGUU [#27 K4 Theophylline B Exclusion] | 130 |
| GCCGUAGAUGGAAGGAGCGUGUCAAAGUGAUGUUUUGAUUAACUCCCUUAGGGAAAGAUGGCACAGGUAGGUCGCCAUCUACGGC | 102 |
| GCAAGAGAGUGAUGUUGUUUUGAUCAGGGCAAGGAUAUGCUAUAUAGCAGAAGGUGCCGUUUUCUGCUGGCUUUCGUUACCCAUU [theeternabot_exclusion_KL_FMN_A_6] | 865 |
| AGUGGACAUGUCUAGAGUGAUGUUCUGGAUACCAGACACGAAAGUGUCCCUUGGCAGCCGGAGUGAUGUUCUGGCGUUCACUAAA [Omei KL Theo A Exc B v7] | 405 |
| UGGACCAAGGAGUGAUGUUCCAAAUGUGAUACCAGCCACGAAAGUGGCCCUUGGCAGCACUGCCAAAGGACGAAAGUCCGGUCCU [#SwitchBubble 10 #StaticStem #K4Early] | 382 |
| GCCGUACGCACGGAUACCAGCACUCGUUGAGUGAUGUUCACGGUGUGGUAUUCAACGGGCUGCCCUUGGCAGCCGUGCGUACGGC | 134 |
| UGUCAUUGGUCGGCCGCCACUAGACGGAUCAUAAGAUCUGUCAAUAAGAGUGAUGUUCUAAAUAAUAGGACCGGGACCGAUGACU [TrypBS 27 #SwitchBubble #StaticStem] | 907 |
| CUUGGGCUUGCGGCCGCCACUCAAACAUCAUUAAGGAUGGUCCACGGGCAAGUGAUGUUUAUCCGGAGGACCGGGCAUAGCGACA [theeternabot_exclusion_KL_Trp_B_23] | 315 |
| UGAUACCAGACUGAUACCAGCGAGUGAUGUUCGUUGAAAUCAGGGUCAAAGACCCUGUCUCGCCCUUGGCAGCAGUCUGGUAUCU [TheoBX 22 #SwitchBubble #StaticStem] | 829 |
| UGGAGUUGACGAAAAGUCAACUCCUGAGAUACCAGUGACGAAAGUCACCCUUGGCAGCUCACUGCCAGUGAUGUUGGAAGAUAAA [whbob_SS_Theo_A_w46] | 438 |
| CCUUCCUAAAACGAUACCAGUUUCUAUCCUCAAUCCAGUGAUGUUGAAUUGAGCUCACAGAACCCUUGGCAGCGUCGCUAUACGG [theeternabot_sameState_KL_Theo_B_39] | 195 |
| UGACUGGACUGAAGGAGCGCUGAACUCCUAGUGAUGUUAGGACAACGAGACAAAGUCUCGAAGCAGGUAGGUCGCAGUCUAGUCU | 154 |

Same assay, conditions: Eterna round: R107; input ligand: theophylline 20 uM

| Sequence | apparent KD of K4 kissing-loop reporter [nM] |
| --- | --- |
| AGUUUAUAGGAGGAUACCAGUACGGAUAAGGUACGUUAAUAGUAGAGUGAUGUUCUAAAGUACCCUUGGCAGCUUAGAUUGAGUU [#27 K4 Theophylline B Exclusion] | 133 |
| GCCGUAGAUGGAAGGAGCGUGUCAAAGUGAUGUUUUGAUUAACUCCCUUAGGGAAAGAUGGCACAGGUAGGUCGCCAUCUACGGC | 131 |
| GCAAGAGAGUGAUGUUGUUUUGAUCAGGGCAAGGAUAUGCUAUAUAGCAGAAGGUGCCGUUUUCUGCUGGCUUUCGUUACCCAUU [theeternabot_exclusion_KL_FMN_A_6] | 990 |
| AGUGGACAUGUCUAGAGUGAUGUUCUGGAUACCAGACACGAAAGUGUCCCUUGGCAGCCGGAGUGAUGUUCUGGCGUUCACUAAA [Omei KL Theo A Exc B v7] | 414 |
| UGGACCAAGGAGUGAUGUUCCAAAUGUGAUACCAGCCACGAAAGUGGCCCUUGGCAGCACUGCCAAAGGACGAAAGUCCGGUCCU [#SwitchBubble 10 #StaticStem #K4Early] | 659 |
| GCCGUACGCACGGAUACCAGCACUCGUUGAGUGAUGUUCACGGUGUGGUAUUCAACGGGCUGCCCUUGGCAGCCGUGCGUACGGC | 139 |
| UGUCAUUGGUCGGCCGCCACUAGACGGAUCAUAAGAUCUGUCAAUAAGAGUGAUGUUCUAAAUAAUAGGACCGGGACCGAUGACU [TrypBS 27 #SwitchBubble #StaticStem] | 681 |
| CUUGGGCUUGCGGCCGCCACUCAAACAUCAUUAAGGAUGGUCCACGGGCAAGUGAUGUUUAUCCGGAGGACCGGGCAUAGCGACA [theeternabot_exclusion_KL_Trp_B_23] | 315 |
| UGAUACCAGACUGAUACCAGCGAGUGAUGUUCGUUGAAAUCAGGGUCAAAGACCCUGUCUCGCCCUUGGCAGCAGUCUGGUAUCU [TheoBX 22 #SwitchBubble #StaticStem] | 320 |
| UGGAGUUGACGAAAAGUCAACUCCUGAGAUACCAGUGACGAAAGUCACCCUUGGCAGCUCACUGCCAGUGAUGUUGGAAGAUAAA [whbob_SS_Theo_A_w46] | 289 |
| CCUUCCUAAAACGAUACCAGUUUCUAUCCUCAAUCCAGUGAUGUUGAAUUGAGCUCACAGAACCCUUGGCAGCGUCGCUAUACGG [theeternabot_sameState_KL_Theo_B_39] | 180 |
| UGACUGGACUGAAGGAGCGCUGAACUCCUAGUGAUGUUAGGACAACGAGACAAAGUCUCGAAGCAGGUAGGUCGCAGUCUAGUCU | 152 |

Same assay, conditions: Eterna round: R107; input ligand: tryptophan 2.4 mM

| Sequence | apparent KD of K4 kissing-loop reporter [nM] |
| --- | --- |
| AGUUUAUAGGAGGAUACCAGUACGGAUAAGGUACGUUAAUAGUAGAGUGAUGUUCUAAAGUACCCUUGGCAGCUUAGAUUGAGUU [#27 K4 Theophylline B Exclusion] | 101 |
| GCCGUAGAUGGAAGGAGCGUGUCAAAGUGAUGUUUUGAUUAACUCCCUUAGGGAAAGAUGGCACAGGUAGGUCGCCAUCUACGGC | 90.4 |
| GCAAGAGAGUGAUGUUGUUUUGAUCAGGGCAAGGAUAUGCUAUAUAGCAGAAGGUGCCGUUUUCUGCUGGCUUUCGUUACCCAUU [theeternabot_exclusion_KL_FMN_A_6] | 708 |
| AGUGGACAUGUCUAGAGUGAUGUUCUGGAUACCAGACACGAAAGUGUCCCUUGGCAGCCGGAGUGAUGUUCUGGCGUUCACUAAA [Omei KL Theo A Exc B v7] | 341 |
| UGGACCAAGGAGUGAUGUUCCAAAUGUGAUACCAGCCACGAAAGUGGCCCUUGGCAGCACUGCCAAAGGACGAAAGUCCGGUCCU [#SwitchBubble 10 #StaticStem #K4Early] | 280 |
| GCCGUACGCACGGAUACCAGCACUCGUUGAGUGAUGUUCACGGUGUGGUAUUCAACGGGCUGCCCUUGGCAGCCGUGCGUACGGC | 144 |
| UGUCAUUGGUCGGCCGCCACUAGACGGAUCAUAAGAUCUGUCAAUAAGAGUGAUGUUCUAAAUAAUAGGACCGGGACCGAUGACU [TrypBS 27 #SwitchBubble #StaticStem] | 647 |
| CUUGGGCUUGCGGCCGCCACUCAAACAUCAUUAAGGAUGGUCCACGGGCAAGUGAUGUUUAUCCGGAGGACCGGGCAUAGCGACA [theeternabot_exclusion_KL_Trp_B_23] | 342 |
| UGAUACCAGACUGAUACCAGCGAGUGAUGUUCGUUGAAAUCAGGGUCAAAGACCCUGUCUCGCCCUUGGCAGCAGUCUGGUAUCU [TheoBX 22 #SwitchBubble #StaticStem] | 785 |
| UGGAGUUGACGAAAAGUCAACUCCUGAGAUACCAGUGACGAAAGUCACCCUUGGCAGCUCACUGCCAGUGAUGUUGGAAGAUAAA [whbob_SS_Theo_A_w46] | 585 |
| CCUUCCUAAAACGAUACCAGUUUCUAUCCUCAAUCCAGUGAUGUUGAAUUGAGCUCACAGAACCCUUGGCAGCGUCGCUAUACGG [theeternabot_sameState_KL_Theo_B_39] | 190 |
| UGACUGGACUGAAGGAGCGCUGAACUCCUAGUGAUGUUAGGACAACGAGACAAAGUCUCGAAGCAGGUAGGUCGCAGUCUAGUCU | 184 |
